Measured values taken from US20170137467A1 (CHROMOTEK, published 2017).
Changes are numbered by the printed parent chain. Values belong to the binder of their own block, whether it stands above or below them.

How the values were obtained:
Assay in all cases: positional peptide library pulldown on immobilised Nb, LC-MS of supernatant; signal ratio to control GFP-Nb (1 = not captured, near 0 = captured)
[1] = target: T1, BC2T W10V
T1 construct: positional scanning library member
T1 peptide: Ac-PDRKAAVSHVQQ-NH2
Description: (§1) In total, 12 different BC2T libraries displaying all 20 proteinogenic amino acids in one single position of the peptide were used in immunoprecipitation experiments. […] The direct comparison with the GFP-Nb made it possible to determine the quantitative degree of peptide capture without the need of labeled standards. […] The more peptide was captured the more the value approximates 0. It was not possible to discriminate between isoleucine (I) and leucine (L) peptide versions since these peptides are isobaric.
(§2) To investigate the binding specificity of the BC2T and derived mutants peptide libraries for each amino acid position of the sequence […] (SEQ ID NO:4) were synthesized with acetyl and amide groups located at the N-termini or C-termini respectively (Intavis). […] Incubations were performed in 300 μl PBS/0.01% CHAPS for 1 h on a HulaMixer (Life Technologies). Subsequent to a centrifugation step 10 μl supernatant were analyzed in a LC-MS procedure. Peptides were separated using an UltiMate3000 RSLCnano System (Thermo Scientific), composed of a C18 PepMap100μ-Precolumn (300 μm×5 mm; particle size: 5 μm; pore size: 100 Å—Thermo Scientific) and a C18 analytical column (Acclaim Rapid Separation LC (RSLC) Column: 150 mm×5 mm; particle size: 2.2 μm; pore size: 100 Å—Thermo Scientific). A step gradient was applied starting at 8% and ending after 20 min at 30% eluent B (80% acetonitrile, 20% H₂O, 0.1% formic acid).

[2] = target: T2, BC2T Q11V
T2 construct: positional scanning library member
T2 peptide: Ac-PDRKAAVSHWVQ-NH2
Description: as §1, §2

[3] = target: T3, BC2T H9(I/L2) (N-terminal acetyl; C-terminal amide)
T3 construct: positional scanning library member; I or L not resolved
Description: as §1, §2

[4] = target: T4, BC2T W10A
T4 construct: positional scanning library member
T4 peptide: Ac-PDRKAAVSHAQQ-NH2
Description: as §1, §2

[5] = target: T5, BC2T W10H
T5 construct: positional scanning library member
T5 peptide: Ac-PDRKAAVSHHQQ-NH2
Description: as §1, §2

[6] = target: T6, BC2T H9V
T6 construct: positional scanning library member
T6 peptide: Ac-PDRKAAVSVWQQ-NH2
Description: as §1, §2

[7] = target: T7, BC2T Q12(I/L1) (N-terminal acetyl; C-terminal amide)
T7 construct: positional scanning library member; I or L not resolved
Description: as §1, §2

[8] = target: T8, BC2T H9A
T8 construct: positional scanning library member
T8 peptide: Ac-PDRKAAVSAWQQ-NH2
Description: as §1, §2

[9] = target: T9, BC2T Q12R
T9 construct: positional scanning library member
T9 peptide: Ac-PDRKAAVSHWQR-NH2
Description: as §1, §2

[10] = target: T10, BC2T H9M
T10 construct: positional scanning library member
T10 peptide: Ac-PDRKAAVSMWQQ-NH2
Description: as §1, §2

[11] = target: T11, BC2T S8P
T11 construct: positional scanning library member
T11 peptide: Ac-PDRKAAVPHWQQ-NH2
Description: as §1, §2

[12] = target: T12, BC2T W10K
T12 construct: positional scanning library member
T12 peptide: Ac-PDRKAAVSHKQQ-NH2
Description: as §1, §2

[13] = target: T13, BC2T Q12G
T13 construct: positional scanning library member
T13 peptide: Ac-PDRKAAVSHWQG-NH2
Description: as §1, §2

[14] = target: T14, BC2T H9Q
T14 construct: positional scanning library member
T14 peptide: Ac-PDRKAAVSQWQQ-NH2
Description: as §1, §2

[15] = target: T15, BC2T S8Q
T15 construct: positional scanning library member
T15 peptide: Ac-PDRKAAVQHWQQ-NH2
Description: as §1, §2

[16] = target: T16, BC2T S8(I/L2) (N-terminal acetyl; C-terminal amide)
T16 construct: positional scanning library member; I or L not resolved
Description: as §1, §2

[17] = target: T17, BC2T Q11(I/L2) (N-terminal acetyl; C-terminal amide)
T17 construct: positional scanning library member; I or L not resolved
Description: as §1, §2

[18] = target: T18, BC2T Q12H
T18 construct: positional scanning library member
T18 peptide: Ac-PDRKAAVSHWQH-NH2
Description: as §1, §2

[19] = target: T19, BC2T Q12W
T19 construct: positional scanning library member
T19 peptide: Ac-PDRKAAVSHWQW-NH2
Description: as §1, §2

[20] = target: T20, BC2T S8T
T20 construct: positional scanning library member
T20 peptide: Ac-PDRKAAVTHWQQ-NH2
Description: as §1, §2

[21] = target: T21, BC2T H9N
T21 construct: positional scanning library member
T21 peptide: Ac-PDRKAAVSNWQQ-NH2
Description: as §1, §2

B1: BC2 nanobody (VHH)
VHH: QVQLVESGGGLVQPGGSLTLSCTASGFTLDHYDIGWFRQAPGKEREGVSCINNSDDDTYYADSVKGRFTIFMDNAKDTVYLQMNSLKPEDTAIYYCAEARGCKRGRYEYDFWGQGTQVTVSS
notes: immobilised on beads in this assay; also called BC2-Nb; BC2 nanotrap (immobilised)
- ratio [1]: 1
- ratio [2]: 0.1
- ratio [3]: 0.1
- ratio [4]: 1
- ratio [5]: 1
- ratio [6]: 0.2
- ratio [7]: 0.1
- ratio [8]: 0.2
- ratio [9]: 0.1
- ratio [10]: 0.1
- ratio [11]: 0.7
- ratio [12]: 1
- ratio [13]: 0.2
- ratio [14]: 0.2
- ratio [15]: 0.7
- ratio [16]: 0.7
- ratio [17]: 0.1
- ratio [18]: 0.1
- ratio [19]: 0.1
- ratio [20]: 0.1
- ratio [21]: 0.1

- ratio [1]: 1
- ratio [2]: 0.2
- ratio [3]: 0.3
- ratio [4]: 1
- ratio [5]: 1.1
- ratio [6]: 0.6
- ratio [7]: 0.2
- ratio [8]: 0.5
- ratio [9]: 0.1
- ratio [10]: 0.3
- ratio [11]: 1
- ratio [12]: 1.1
- ratio [13]: 0.4
- ratio [14]: 0.4
- ratio [15]: 0.9
- ratio [16]: 0.9
- ratio [17]: 0.4
- ratio [18]: 0.3
- ratio [19]: 0.3
- ratio [20]: 0.2
- ratio [21]: 0.3
B2: BC2-NbR106S (VHH)
VHH: B1 VHH with R106S
notes: headlock mutant of BC2-Nb; immobilised on beads in this assay
